The data set “SEC” deals with the molecule itself. Briefly: SEC.
The target of data set [1] is MyD88 S34Y DD-ID (residues 1-156), Protein A-tagged (LUMIER) (human, UniProt Q99836 1-156, S34Y). Briefly: LUMIER.
In data set [2] the target is MyD88 R98C DD-ID (residues 1-156), Protein A-tagged (LUMIER) (human, UniProt Q99836 1-156, R98C). Briefly: LUMIER.
Chain of MyD88 R98C DD-ID (residues 1-156), Protein A-tagged (LUMIER) (Q99836 1-156 R98C): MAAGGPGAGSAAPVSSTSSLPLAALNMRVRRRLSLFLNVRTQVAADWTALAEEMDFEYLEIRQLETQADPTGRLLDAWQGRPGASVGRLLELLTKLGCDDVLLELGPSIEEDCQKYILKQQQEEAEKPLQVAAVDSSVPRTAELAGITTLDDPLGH

Chain of MyD88 S34Y DD-ID (residues 1-156), Protein A-tagged (LUMIER) (Q99836 1-156 S34Y): as the sequence (Q99836 1-156 R98C) above, with S34Y, C98R counted along it

B1: MyD88 R98C DD, purified from bacteria (domain or fragment)
chain: SLPLAALNMRVRRRLSLFLNVRTQVAADWTALAEEMDFEYLEIRQLETQADPTGRLLDAWQGRPGASVGRLLELLTKLGCDDVLLELGPSI
Regarding B1, the “stoichiometry N” value in “SEC” worked out at 2.

B2: Renilla luciferase-tagged IRAK4 DD (residues 1-106) (domain or fragment)
chain: MNKPITPSTYVRCLNVGLIRKLSDFIDPQEGWKKLAVAIKKPSGDDRYNQFHIRRFEALLQTGKSPTSELLFDWGTTNCTVGDLVDLLIQNEFFAPASLLLPDAVP
Consider B2, for which the “fold reduction of binding against WT DD” value in data set [1] and in data set [2] was more than 10 fold throughout.

The stoichiometry N is a count of units in the complex or per binding partner.

The values above are taken from paper PMC3020742 (The Journal of Biological Chemistry, 2010).
